The text below walks through data of the nanobody polyreactivity screen of Harvey et al. (2022).

A short description of the series: yeast display, Sf9 membrane polyspecificity reagent, FACS + sequencing; frameworks hold sequencing errors. In short, it runs like this:
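Nanobodies from a synthetic yeast display library (Saccharomyces cerevisiae BJ5465), induced 36–48 hours with galactose, were stained 1 hour at 4 °C with 10% biotinylated, detergent-solubilized Sf9 membrane reagent, enriched on streptavidin microbeads, then FACS-sorted. Anti-HA (expression) and streptavidin (reagent binding) fluorescence set low and high (top ~1%) gates. Polyreactivity labels come from the gate of origin. Genes were colony-PCR amplified, MiSeq 2 × 250 sequenced and filtered by CDR length.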
For “QVQLVESGGGLVQAGGILRLSCAASGIIFYYYAMGWYRQAPGKEMELVAGIRARGGITYYADSVKGRFTISRDNAKNTVYLLMNSLKPVDTAVYYCAKSTRPVSGVPDGPLYEYWGQGTQVTVSS”, the “polyreactivity (PSR sort gate)” value was “low polyreactivity”.

On to “QVQLVESGGGLVQAGGILRLSCAASGLIFKYNAMGWYRQAPGKERELVAAISTSGGSTYYADSVKGRFTISRDNAKNTVYLQMNSLKPEDTAVYYCNVAYIKTRLFRPYDYWGQGTQVTVSS”, for which the “polyreactivity (PSR sort gate)” value was “high polyreactivity”.

As for “QVQLVESGGGLVQAGGILRLSCAASGLTFAKYAMGWYRQAPGKERELVAAITKSSGSTYYADSVKGRFTISRDNAKNTVYFQMNSLKPEDTAVYYCAAGIYAFRRHREEYHYWGQGTQVTVSS”, the “polyreactivity (PSR sort gate)” value was “high polyreactivity”.

For “QVQLVESGGGLVQAGGILRLSCAASGLTFYYYSMGWYRQAPGKERELVAAINSSGGITFYADSVKGRFTISRDNAKNTVYLQMNSLKPEDTAVYYCAAGGRSKRYGYWGQGTQVTVSS”, the “polyreactivity (PSR sort gate)” value was “low polyreactivity”.

As for “QVQLVESGGGLVQAGGILRLSCAASGNAMGWYRQAPGKERELVATINRSGGRTYYADSVKGRFTISRDNAKNTVYLQMNSLKPEDTAVYYCATEGRWPNASYGDYDYWGQGTQVSVSS”, the “polyreactivity (PSR sort gate)” value is “low polyreactivity”.

Turning to “QVQLVESGGGLVQAGGILRLSCAASGNIFDRYAMGWYSQAPGKERELVAGMTWSGGSTYYADSVKWRFTISRDNAKNTVYLQMNSLKPEDTAVYYCGQANYYWGQGTQVTVSS”, the “polyreactivity (PSR sort gate)” value is “low polyreactivity”.

Regarding “QVQLVESGGGLVQAGGILRLSCAASGRIFRYNAMGWSRQAPGKERELVAAISSSGSSTYYADSVKGRFTISRDNAKNTVYLQMNSLKPADTAVYYCNARIPSRYYYQYDYWGQGTQVTVSS”, the “polyreactivity (PSR sort gate)” value was “high polyreactivity”.

For the sequence “QVQLVESGGGLVQAGGILRLSCAASGRIFSRYVMGWYRQAPGKEREFVASITWSGSSTYYADSVKGRFTISRDNAKNTVYLQMNSLKPEDTAVYYCAALGLLSPSPWGTHISEYDSWGQGTQVTVSS”, the “polyreactivity (PSR sort gate)” value is given as “low polyreactivity”.

Turning to “QVQLVESGGGLVQAGGILRLSCAASGRNFVHYAMGWYRQAPGKERELVAAISHSGGRTYYADSVKGRFTMSRDYAQNTVYLQMNSLKPEDTAVYYCNVRGSPAGTGLLDYWGQGTQVTVSS”, the “polyreactivity (PSR sort gate)” value is given as “high polyreactivity”.

In the case of “QVQLVESGGGLVQAGGILRLSCAASGRTFKYYAMGWYRQAPGKERELVATITWSGTSTNFADSVKGRFTISRDNAKNTVYLQMNSLKPEDTAVYYCAARSKRRNYDYWGQGTQVTVSS”, the “polyreactivity (PSR sort gate)” value is listed as “high polyreactivity”.

As to “QVQLVESGGGLVQAGGILRLSCAASGRTFNSNAMGWYRQAPGKERELVAAITGGGGRTYYADSVKGRFTISRDNAKNTVYLQMNSVKPEDTAVYYCYAARWYRGYDYWGQVTQVTVSS”, the “polyreactivity (PSR sort gate)” value was “high polyreactivity”.

Regarding “QVQLVESGGGLVQAGGILRLSCAASGRTFQGNAMGWSRQAPGKERELVAVIDSGTSTDYADSVKGRFTISRDNAKNTVYLQMNSLKPEDTAVYYCAADGALGYNLRYDYWGQGTQVTVSS”, the “polyreactivity (PSR sort gate)” value is recorded as “low polyreactivity”.

On to “QVQLVESGGGLVQAGGILRLSCAASGRTFSWNAMGWYRQAPGKERELVAAISNSGGSTYYADSVKGRFTISRDNAKNTVFLQMNSLKPEDTAVYYCAVYRYYGFSLWYDYWGQGTQVTVSS”, for which the “polyreactivity (PSR sort gate)” value is on record as “low polyreactivity”.

With “QVQLVESGGGLVQAGGILRLSCAASGSIFDVYAMGWYRQAPGKERELVAAINRGGSTNYADSVKGRFTISRDNAKNTVYLQMNCLKPEDTAVYYCAADIVWYVYNGYYWIFDYWGQGTQVTVSS”, the “polyreactivity (PSR sort gate)” value was “high polyreactivity”.

Regarding “QVQLVESGGGLVQAGGILRLSCAASGSIFEWYAMGWYRQAPGKEREFVAAINSGGSTYYADSVKGRFTISRDNAKNTVYLQMNSLKPEDTAVYYCNKVSYGYSTYGYWGQGTQVTVSS”, the “polyreactivity (PSR sort gate)” value is “low polyreactivity”.

Consider “QVQLVESGGGLVQAGGILRLSCAASGSIFNGYAMGWYRQSPGKERELVAAISWNGGSTYYADSVKGRFTISRDNAKNTFYLLMNSLKPEDTAVYYFAAGGYYDSRTYYYWGQGTQVSVSS”, for which the “polyreactivity (PSR sort gate)” value is “high polyreactivity”.

With “QVQLVESGGGLVQAGGILRLSCAASGSIFPFNAMGWYRQAPGKERDLVAAITRSGGSTYYADSVKGRFTISRDNAKNTVYLQMNSLKPEDTSVYYCATDPEWPLPAYYYWGQGTQVTVSS”, the “polyreactivity (PSR sort gate)” value is on record as “low polyreactivity”.

In the case of “QVQLVESGGGLVQAGGILRLSCAASGSIFRQYARGWYRQAPGKERAFVAAITRRGGSTRYADSVKGRFTISRDNAKNTVYLQMNSLKPEDSAVEYCAARGVPGLHRYYYWGQGTQVTVSS”, the “polyreactivity (PSR sort gate)” value is reported as “high polyreactivity”.

Turning to “QVQLVESGGGLVQAGGILRLSCAASGSIFSQYAMGWYRQAPGKERELVATISWNGGRTYYADSVKGRFTISRDNAKNTVYLELNSLKPEDTAVYYCAARYGGVPYYYWGQGTQVTVSS”, the “polyreactivity (PSR sort gate)” value is given as “high polyreactivity”.

“QVQLVESGGGLVQAGGILRLSCAASGSIFYWSTMGWYIQAPGKERELVAAISSIDGNTYYADSVKGRFTISRDNAKNTVYLQMNSLKPEDTAVYYCAAAYYNTDYYYWGQGTQVTVSS”: the “polyreactivity (PSR sort gate)” value is recorded as “low polyreactivity”.

With “QVQLVESGGGLVQAGGILRLSCAASGSTFAANAMGWYRQAPGKERELVAAITSSGGSTYYADSVKGRFTISRDNAKNTVYLQMNSLKPEDTAVYYCNKDIERYVRIYYSWGQGTQVTVSS”, the “polyreactivity (PSR sort gate)” value is given as “low polyreactivity”.

For “QVQLVESGGGLVQAGGILRLSCAASGSTFAQNAMGWYRQAPGKEREFVAAITGTVGSTYYADSVKGRFTISRDNAKNTVYLQMNSLKPEDTAVFYCNTRGFNGRVYPYDYWGQGTQVTVSS”, the “polyreactivity (PSR sort gate)” value was “low polyreactivity”.

Turning to “QVQLVESGGGLVQAGGILRLSCAASGSTFDINTMGWYRQAPGKEREFVAAITDSDDSTYYADSVKGRFTISRDHAKNTVYLLMNSLKPEDTAVDYCNYDYWGQGTQVTVAS”, the “polyreactivity (PSR sort gate)” value is recorded as “low polyreactivity”.

“QVQLVESGGGLVQAGGILRLSCAASGSTFPFYAMGWYRQAPGKVRELVASINSDGSTNYADSVKGRFTISRDNAKNTVYLQMNSLKPEDTAVYYCAAGWQTRFYSRYYYWGQGTQVTVSS”: the “polyreactivity (PSR sort gate)” value was “high polyreactivity”.

“QVQLVESGGGLVQAGGILRLSCAASGSTFYENAMGWYRQAPGKERELVAAITWSGGRTYYADSVKGRFTISRDNAKNTVYLQMNSLKPEDTAVYYCNARARSRKFYYWGQVTQVTVSS”: the “polyreactivity (PSR sort gate)” value is recorded as “high polyreactivity”.

Consider “QVQLVESGGGLVQAGGILRLSCAASGYIFGPNAMGCYRQAPGKERELVAGITWSTGNTYYAVSVKGRFTISRDNAKNTVYLHMNSLKPEDTAVYYCAADFYVAYEGVQPYWMDYWGQGTQVNVSS”, for which the “polyreactivity (PSR sort gate)” value is on record as “low polyreactivity”.

With “QVQLVESGGGLVQAGGILRLSCAAYGSISYGYGMGWYRQPPGKERELVATLSGRAGSTYYADSVKGRFTISRDNAKYTVYLQMNSLKPEDTAVYYCAAKWWRLTWTAGYGGRCYGYWGQGSQVTVSS”, the “polyreactivity (PSR sort gate)” value was “low polyreactivity”.

For “QVQLVESGGGLVQAGGILRLSCADSGRTFWYYAMGWYRQAHGKERELVAAITRGGRTNYADSVKGRFTISRDNAKNTVYLQMNSLKPEDTAVYYCAADYRYPAHSYGYWGQGTQVTVSS”, the “polyreactivity (PSR sort gate)” value is “high polyreactivity”.

Consider “QVQLVESGGGLVQAGGILRLSCADSGSTFIGYAMGWYRQAPRKERELFAAISKSGGSTYYADSVKGRFTISRDNAKNTVYLQMNSLKPEDTAVYYCIVDTSRYVSWNDYWGQGTQVTVSS”, for which the “polyreactivity (PSR sort gate)” value is “high polyreactivity”.

Turning to “QVQLVESGGGLVQAGGILRLSCASSGRTFAWYAMGWYRPAPGKERELVAAITTRGSGTYYADSVKGRFTISRDNAKNTVYLQMNSLKPEDTAVYYGAKDPITATTLDERVYYWGQGTQLTVSS”, the “polyreactivity (PSR sort gate)” value is on record as “low polyreactivity”.

As for “QVQLVESGGGLVQAGGILRLSCASSGSTFGYNVMGWYRQAPGKERELVAAISSSGGSTYYADSVKGRFTISRDTAKNTVYLQMNSLNPEDTAVYYGAADVGFRWYRYTAGPLEYDYWGQGTQVTVSS”, the “polyreactivity (PSR sort gate)” value was “high polyreactivity”.

“QVQLVESGGGLVQAGGILRLSCPASGIIFDGNVMGWYRQAPGKEREFVASISISGGSTSYADSVKGRFTISRDNAKNTVYLQMNSLKPEDTAVYYCNTDVGYGRVWRWRYHGDYWGQGTQVTVSS”: the “polyreactivity (PSR sort gate)” value is “low polyreactivity”.

As for “QVQLVESGGGLVQAGGNLRLICDASGSIFLYNTMGWYRHAPGQERELVAAITYSGGSTYYADSVKGRFTISRDNAKNTVYLQMNSLNPEDTAVYYCNARHYSAFYSWGQGTQVTVSS”, the “polyreactivity (PSR sort gate)” value was “high polyreactivity”.

For the sequence “QVQLVESGGGLVQAGGNLRLSCAASGIILYRYAMGWYRQAHGKERELVAAISRRGGSTYYADSVKGRFTISRDNAKNSVYLQMNSLKPEDTAVYYCAAYYRGYAYYYWGQGTQVTVSS”, the “polyreactivity (PSR sort gate)” value is recorded as “high polyreactivity”.

Take “QVQLVESGGGLVQAGGNLRLSCAASGSIFYWNAMGWYRQAPGKERELVAAINYSGDSTYYADSVKVRFTISRDNAKNTVYLQMNSLKPEDTAVYYCNFDYWGQGSQVTVSS”: the “polyreactivity (PSR sort gate)” value was “low polyreactivity”.

“QVQLVESGGGLVQAGGRHRISCAASGLICVTYAMGWYRQAPGKERELVAVITASGDGTYYADSVKGRFTMSRDNAKNTVYLQMNSLKPEDSAVYSCAAGNMSQVGAIGKNTSQSDYWGQGTHVTVSS”: the “polyreactivity (PSR sort gate)” value is recorded as “low polyreactivity”.

“QVQLVESGGGLVQAGGRIRLSCAASGIIFYPYAMGWYRQAPGKERELVAGISSSGGSTYYADSVKGRFTISRDNAKNTVYLQMNSLKPEDTAVYYCAAVRISRTPRGLYEYWGQGTQVTVSS”: the “polyreactivity (PSR sort gate)” value was “high polyreactivity”.

Consider “QVQLVESGGGLVQAGGRIRLTCAASGFTFKAYSMGCDRQAPGKERELVAAITKSGGRTFYADSVKGRFRISRDNAKNTVYLQMNSLKPEDTAVYYCAASYTVYYWGQGTQVTVSS”, for which the “polyreactivity (PSR sort gate)” value is recorded as “high polyreactivity”.

On to “QVQLVESGGGLVQAGGRLLLSCAASGLTFYEYAMGWYRQAHGKERELVADIDFNGGSTSYAYSVKGRFTISRDNAKNTVYLQMNSLKPEDTAVYYCNTRDRGDVVTGLDYSGQGTQVTVSS”, for which the “polyreactivity (PSR sort gate)” value is recorded as “low polyreactivity”.

For the sequence “QVQLVESGGGLVQAGGRLPLSCAASGSTIYINAMGWYRQPPGKQRELVAPISYSGGSSYFADSVKGRFTISRDYAKNTVYFQKNSLIPEDTRVYYCYARGLQSFYPGYWFRGDFWGQGTQVTVSS”, the “polyreactivity (PSR sort gate)” value was “high polyreactivity”.

Take “QVQLVESGGGLVQAGGRLRISCAASGFTFTRYAMRWYRQAPGKERELVAAISWSGGSTYYADSVKGRFTISRDNAKNTVSFQMNSLKPEDTAVYYCAKRGTVRQGGYGFWGQGTQVSVSS”: the “polyreactivity (PSR sort gate)” value was “high polyreactivity”.
